# According to the DeepSol protein solubility set:
# Assay: soluble on expression in E. coli; label from the status in PepcDB or PDB records
row,Sequence,soluble on expression in E. coli
1,MGSDKIHHHHHHVSATDTLDKTGTQTSAVRLGDLETPCLVLDADRMDRNIARLRDRIAGLGVTLRPHLKTAKSVEVARRVMATSEGPATVSTLKEAEFFADAGVRDIIYAVGIAPWKLAKVIELRKRGVDLAVVLDTVELAQAVAAASRESGMAIPALIEIDCDGHRSGVLPRDSERLLAIGKALVEGGELRGVLTHAGGSYAARGEEALRNAAEEERASVVNAAAILRDAGLPCPVVSVGSTPTAHHATDLTGVTEVRAGVFVFFDLVMTGIGICTVDDIAISVLATVIGHQREKGWILVDAGWMAMSQDRGTAKQVVNQGYGVVCKCDGTPYADLILADANQEHGIIMVRPGSDGTLPDLAIGDRVRILPNHACATGAQHRRYNVVHGTSDVVTGEWQRFGGW,not soluble
2,PNFSGNWKIIRSENFEELLKVLGVNVMLRKIAVAAASKPAVEIKQEGDTFYIKVSTTVRTTEINFKVGEEFEEQTVDGRPCKSLVKWESENKMVCEQKLLKGEGPKTSWTLELTNDGELIDTMTADDVVCTKVFVRE,soluble
3,GMLDNAIPQGFEDAVELRRKNRETVVKYMNTKGQDRLRRHELFVEDGCGGLWTTDTGSPIVIRGKDKLAEHAVWSLKCFPDWEWYNIKVFETDDPNHFWVECDGHGKILFPGYPEGYYENHFLHSFELDDGKIKRNREFMNVFQQLRALSIPVPQIKREGIPT,soluble
4,MGSDKIHHHHHHGIKNGLKEEPKINVGIKGGFNSSMYFTSRLELDGERMEDVQNNYKVGYFAAMFFRVHMKRHFIQPEIMYNIYKGEIAFNKNQNKENTLPELAKLNSTIHSLELPILYGYSFVKSRPYGMALFIGPKLEYVWKHKTSEEFEGFGYSGIKEELHPINISSVIGLGVNIANIFFDFRYEIGLTNISKSIIYKKDTDGIMSQEKGIFINRHRNVLSFSLGVIF,not soluble
5,QDSKVFDPFLAAITPEIMPVKGKLAEKALPLIDQQLQGQPGSTVLLVSDGVNPATIKQYQAYFAGKPYQLLILAAGNTDIVSNNPMDLDSLQKLASQTNGRLVEVTVDNSDIEQLNRYVERNMQLNGESSMPWKD,not soluble
6,MKVSEKTYLSIEEIISLPTVSSTNISDDGKNVAFVKRTANWEDNTYRNHVWIYEKDKGKSYPLTTGDIDSIHPLWSPDSKSIAYLSSGGDGDMKNQIFVKSLDDYSKVKITDEKEGISNFKWDPTGKGFYYITQSKECEEIKKRKELYGDFQHVGKEHQNNCLCYIEMEKVIQNDKEEREINGVYQLTGGKDFYIHGFDISDNGKKVVCMATPSLNDHMNGDLYILDVEARELQQMNVDKLLGGSACFSPEGNKICYSASIREKEYYRNHIQESTLEIYDMNTGEVIQPLTNFDSMVMPLQWTAKGILIRWQDKTNYFIGLLAEDGTVETLREKVDGFIMDASITRDGNHITYNKAITNETFEIYLDDKKITNENSLFEGKLKSNREIISWRSSDGLEIEGVLSTPVEFDANKKYPLLVVIHGGPAWASFPIFSNCFNEKYPIEQFVEKGFIVLEPNYRGSSGYGNEFLKANYRKQGLADYDDVISGVDELVEKGMVDKDRVGVMGWSNGGYISAFCSTFSSRFKAISVGGGITNWSTHYVNTDIPYFIRMYLGNTPWNDPDIYKRTSPMTYIKSACTPTLIQHGEKDARIPITNAYELHQGLKDMEVDTELIIFKGMAYSSDQPGVHVAIMKQNLMWFSHYILGESMEDFSTI,not soluble
7,MILLDTNVISEPLRPQPNERVVAWLDSLILEDVYLSAITVAEMRLGVALLLNGKKKNVLHERMEQSILPLFAGRILPFDEPVAAIYAQIRSYAKTHGKEIAAADGYIAATAKQHSMTVATRDTGSFFAADVAVFNPWHLEHHHHHH,soluble
8,MRQHRPALELSRLPELLSRIDGYKGQPVTRLAVMLNLLVFIRSSELRYARWSEIDIDNSMWTIPAEREPLPGVKFSHRGSKMRTPHLVPLSKQVVAILAELQTWAGENGLIFTGAHDPRKPISENTVNKALRVMGYDTTQEVCGHGFRAMACSALIESGLWSRDAVERQMSHQELEHHHHHH,not soluble
9,ENKDNKGQIKTLDRDGQSITSYSFFAKNGDNVEKINVEVDQRQLSKDESLKLMENSRNKLVKLVLDKNKSANHIDKPLNLIREIPDTDISVTWDISDSRVLNYDGQIMSDVSQEGTIVNLTANMELNELTLSYTFAVNVFPRNYKGDIQEAVQEYINSQDSEQKKIFLPENISGEKISYYKSASK,soluble
10,MGSDKIHHHHHHMSHISTADIEQVILPSSRDLGGFSVRRALPAPMRQMVGPFIFLDSFGPVRFGEGEGIDTRPHPHIGLSTLTYLLEGELTHRDSERYVQAIRPGEVNVMVAGAGIVHSERTPEHQRATGGKLAGLQSWIALPKKSEETAPLFQHLDAGSLPTVSGEGIGMKLLAGNLHGRQSPATVFSDLFAAEVHLEAGARYRIDGEHVERAIFVVAGALEIVGQDGNFGQDRLLVFKPGSEIVVKATGPARFLAFGGEPLPEKRFIRWNFVATDQERIRHAADLWRERGFPGVPDDDEFIPLPENFR,not soluble
11,LLQHAHNPVNWYSWSPEAFSKAKSEDKPIFLSIGYSTCHWCHVMERESFEDDDVAEVLNRSFVSIKVDREERPDIDEIYMNVCTAITGSGGWPLTIVMTPEQKPFFAGTYIPKNNRMGMQGLISLLENIEYQWKENQNELVEIGDKIVSSLNKDRKT,not soluble
12,MAGFEIQRVESKFFDLDDIIAKSDSTSCTFEIGDLNPDFFQEMLGVSKPTQNADGYGVDAPYWLLESVRSSFSIQLPKAYSVNMQNVLNADSKKLNLSGLQQHFYGNGMQLCRLMKGENPDGALSLARCLVSTLTQRLGEIVSTATHLQSKGEKFDSLETKVFLEGKRCKEDIDTWLRQDNKCSSKKRKRLSL,not soluble
13,MKALSKLKAEEGIWMTDVPVPELGHNDLLIKIRKTAICGTDVHIYNWDEWSQKTIPVPMVVGHEYVGEVVGIGQEVKGFKIGDRVSGEGHITCGHCRNCRGGRTHLCRNTIGVGVNRPGCFAEYLVIPAFNAFKIPDNISDDLAAIFDPFGNAVHTALSFDLVGEDVLVSGAGPIGIMAAAVAKHVGARNVVITDVNEYRLELARKMGITRAVNVAKENLNDVMAELGMTEGFDVGLEMSGAPPAFRTMLDTMNHGGRIAMLGIPPSDMSIDWTKVIFKGLFIKGIYGREMFETWYKMAALIQSGLDLSPIITHRFSIDDFQKGFDAMRSGQSGKVILSWD,soluble
14,MKSNTSQQRPYQEVGAMIRDLIVQTPYRPGERLPPEREIAERLNVTRTVVREALIMLEIKGLVEVRRGAGIYVLDSADNNEMEGADVNHCNDAGPFELLQARQLLESNIAEFAALQATREDIIKMRQALQLEERELASSAPGGSESGDMQFHLAIAEATHNSMLVELFRQSWQWRENNPMWLQLHSHLGDTLYRKEWLVDHKQILAALIKKDARAAKLAMWQHLENVKQRLLEFSNVDDIYFDGYLFESWPLDNVDA,not soluble
15,HNGDLYFSNVMLQDMQTDYSCNARFHFTHTIQQKNPFTLKVLTTRGVAERTPSFMYPQGTASSQMVLRGMDLLLECIASGVPTPDIAWYKKGGDLPSDKAKFENFNKALRITNVSEEDSGEYFCLASNKMGSIRHTISVRVKAAPYWLDEPKNLILAPGEDGRLVCRANGNPKPTVQWMVNGEPLQSAPPNPNREVAGDTIIFRDTQISSRAVYQCNTSNEHGYLLANAFVSVLDVPPRMLSPRNQLIRVILYNRTRLDCPFFGSPIPTLRWFKNGQGSNLDGGNYHVYENGSLEIKMIRKEDQGIYTCVATNILGKAENQVRLEVKDPTRIYRMPEDQVARRGTTVQLECRVKHDPSLKLTVSWLKDDEPLYIGNRMKKEDDSLTIFGVAERDQGSYTCVASTELDQDLAKAYLTVLGRPDRPRDLELTDLAERSVRLTWIPGDANNSPITDYVVQFEEDQFQPGVWHDHSKYPGSVNSAVLRLSPYVNYQFRVIAINEVGSSHPSLPSERYRTSGAPPESNPGDVKGEGTRKNNMEITWTPMNATSAFGPNLRYIVKWRRRETREAWNNVTVWGSRYVVGQTPVYVPYEIRVQAENDFGKGPEPESVIGYSGEDYPRAAPTEVKVRVMNSTAISLQWNRVYSDTVQGQLREYRAYYWRESSLLKNLWVSQKRQQASFPGDRLRGVVSRLFPYSNYKLEMVVVNGRGDGPRSETKEFTTPEGVPSAPRRFRVRQPNLETINLEWDHPEHPNGIMIGYTLKYVAFNGTKVGKQIVENFSPNQTKFTVQRTDPVSRYRFTLSARTQVGSGEAVTEESPAPPNEGRCMAAAPGVKGPS,soluble
16,GKTMKMRKFTIADASLERSPGQEADISVGNLVDERHGGPITIGYGRYAPGQSLTETMAVDDVMIVLEGRLSVSTDGETVTAGPGEIVYMPKGETVTIRSHEEGALTAYVTYPHWRPAHA,soluble
17,SKKVIVIAGTTGVGKSQLSIQLAQKFNGEVINSDSMQVYKDIPIITNKHPLQEREGIPHHVMNHVDWSEEYYSHRFETECMNAIEDIHRRGKIPIVVGGTHYYLQTLFNKRVDTKSSERKLTRKQLDILESTDPDVIYNTLVKCDPDIATKYHPNDYRRVQRMLEIYYKTGKKPSETFNEQKITLKFDTLFLWLYSKPEPLFQRLDDRVDDMLERGALQEIKQLYEYYSQNKFTPEQCENGVWQVIGFKEFLPWLTGKTDDNTVKLEDCIERMKTRTRQYAKRQVKWIKKMLIPDIKGDIYLLDATDLSQWDTNASQRAIAISNDFISNRPIKQERAPKALEELLSKGETTMKKLDDWTHYTCNVCRNADGKNVVAIGEKYWKIHLGSRRHKSNLKRNTRQADFEKWKI,soluble
18,MTKKKVYNKRKRKEASIRVLEAIREKRKQQLAENARLEAEQAEQDVAPEPIDVQDPVINAGNIVEDAEPLNVNPSPPQPRKFNFRVANLEIARQAKISQNLMKTSETASTSSPVRQQVKTEIVPRVSQRTIVKTQALPRVNAPVLSSVPAKNPLPPKFVYINTAGLKRKRDDDKNTPSTSNSITLNPSSRGDQTQFIVHLQRTIERLEKEKAALTEKLTMREDEIKVFSVEFVNIQKENVKLMKENKAKESQISNQSIQVRNSWKFADLFKKELQKSRKDVSEVKWKIDKIEKKVGIKKPTPRKKPDVKLINPEDISLMSDRTQDGEDSSDFGSPLAKYLKPDQPSTSSACYGKPFYFESTSSSSRKPITASPGPPGRTQISDQLNTGEVRYVVNSGKPFNFSSESNSRNLKLIPGYIKRPEFRYIKPEGFTSASYKAQSEGMSSFLKTGSSATPENSKKSAHFDMPDISSTPYKSHVVVESDEMNSSSSTIGGFESEKKDNGALGSQKSPMPDIATALHNIFDSKEVQSSSSTTGSSAPPENSKKSDHFDMPDISSTLYRSRVEPISSSSSGSTSTSAPRYVPKPIAQPARYAIPSPGALNALRRPPEWKGQRRHAPSYVKSRESVTFRGCSRFPVTSPHFAKAHLEPVTDGKDDSKIVKYRFVPKRPDFDGEREHKK,not soluble
19,MEATLPVLDAKTAALKRRSIRRYRKDPVPEGLLREILEAALRAPSAWNLQPWRIVVVRDPATKRALREAAFGQAHVEEAPVVLVLYADLEDALAHLDEVIHPGVQGERREAQKQAIQRAFAAMGQEARKAWASGQSYILLGYLLLLLEAYGLGSVPMLGFDPERVRAILGLPSRAAIPALVALGYPAEEGYPSHRLPLERVVLWR,soluble
20,MSLPDEQGRRTVTLETAEEALLKRAVVYDHDGDEHYHVASALIKSIRGSDPDAALYWLARMLYAGEDPRFIARRLVISAAEDIGLADPQALVIAQAAADAVSFIGMPEGRIPLAEAVVYLACAPKSNSAYLAIDRALAVVEREKTPPVPNHLKDTGYGSDQRLGYGKGYQYPHDFPGAWVEQRYLPEGVDGPFWEPKGYGREAELARLLRERRGREGHHHHHH,soluble
21,PAEIHIITAARGRGKSTLAGKLAEQFAKTEQVILTAHRSSSIQKILQTASINIPFFAPDKLLNLIETKQISADHLLFIDEAACIPLPILQQLGNYFKKVILTTTTQNYEGTGRGFKLKLVKQLHRTTKEWQLFQPLRWSNHDRLEQFTNELLLLN,not soluble
